According to patent US20050037969A1 (ARBOR VITA, published 2005):
Ends that are not written are not given here. * marks the point of attachment. Biotin = O=C1N[C@H]2[C@H](CS[C@H]2CCCCC(=O)*)N1

T1: KIAA0807 (PDZ domain)-GST fusion protein (human, UniProt Q6P0Q8 1104-1192)
T1 construct: also called K807; KIAA807; not shown: glutathione S-transferase encoded by vector pGEX-3X (Pharmacia)
T1 sequence: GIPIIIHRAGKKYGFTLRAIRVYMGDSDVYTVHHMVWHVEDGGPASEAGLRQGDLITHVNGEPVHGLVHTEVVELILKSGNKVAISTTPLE

T2: GEF PDZ-GST fusion protein (Homo sapiens (Human), UniProt Q8TEU7 293-400)
T2 construct: The label GEF is not explained in the excerpts
T2 sequence: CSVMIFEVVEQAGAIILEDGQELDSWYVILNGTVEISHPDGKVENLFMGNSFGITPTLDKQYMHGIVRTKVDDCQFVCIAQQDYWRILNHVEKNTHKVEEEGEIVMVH

T3: GST-KIAA0303 PDZ domain fusion protein (Homo sapiens (Human), UniProt O15021 1138-1228)
T3 construct: also called K303; not shown: glutathione S-transferase encoded by vector pGEX-3X (Pharmacia)
T3 sequence: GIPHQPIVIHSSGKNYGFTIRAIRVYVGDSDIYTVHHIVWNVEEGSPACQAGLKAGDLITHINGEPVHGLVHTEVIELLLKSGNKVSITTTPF

T4: GST-AF6 PDZ domain fusion protein (Homo sapiens (Human), UniProt P55196 1001-1093)
T4 construct: also called af-6 protein; not shown: glutathione S-transferase encoded by vector pGEX-3X (Pharmacia)
T4 sequence: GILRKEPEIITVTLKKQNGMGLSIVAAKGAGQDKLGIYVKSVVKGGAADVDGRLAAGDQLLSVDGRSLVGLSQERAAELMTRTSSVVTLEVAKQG

T5: X11β PDZ-GST fusion protein (Rattus norvegicus (Rat), UniProt O35431 560-745)
T5 construct: Order of GST and PDZ part and limits not seen in the excerpts
T5 chain: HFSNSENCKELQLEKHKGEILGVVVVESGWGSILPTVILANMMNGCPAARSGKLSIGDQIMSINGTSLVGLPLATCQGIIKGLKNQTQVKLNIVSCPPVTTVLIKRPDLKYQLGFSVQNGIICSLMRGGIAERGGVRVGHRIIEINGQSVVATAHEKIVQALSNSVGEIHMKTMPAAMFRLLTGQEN

T6: GST-cytohesin binding protein PDZ domain fusion protein (Homo sapiens (Human), UniProt O60759 74-165)
T6 construct: also called CBP; not shown: glutathione S-transferase encoded by vector pGEX-3X (Pharmacia)
T6 sequence: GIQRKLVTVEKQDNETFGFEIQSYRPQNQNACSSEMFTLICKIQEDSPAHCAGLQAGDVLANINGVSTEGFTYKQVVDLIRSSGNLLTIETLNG

T7: MINT3 PDZ-GST fusion protein
T7 construct: Order of GST and PDZ part and limits not seen in the excerpts
T7 chain: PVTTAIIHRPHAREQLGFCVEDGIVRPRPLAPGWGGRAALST

T8: GST-DLG5 (p-dlg) PDZ domain fusion protein (Human, UniProt Q8TDM6 1343-1583)
T8 construct: also called Human discs large protein p-dlg; not shown: glutathione S-transferase encoded by vector pGEX-3X (Pharmacia)
T8 sequence: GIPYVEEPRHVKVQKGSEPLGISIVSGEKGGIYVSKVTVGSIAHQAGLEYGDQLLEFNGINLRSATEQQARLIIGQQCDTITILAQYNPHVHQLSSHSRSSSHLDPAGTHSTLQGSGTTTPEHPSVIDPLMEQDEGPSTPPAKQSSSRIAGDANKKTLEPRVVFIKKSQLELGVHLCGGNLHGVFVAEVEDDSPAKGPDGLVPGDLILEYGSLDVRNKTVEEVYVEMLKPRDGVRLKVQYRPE

T9: K858 PDZ-GST fusion protein (Homo sapiens (Human), UniProt Q8WWI1 1038-1131)
T9 construct: Order of GST and PDZ part and limits not seen in the excerpts
T9 sequence: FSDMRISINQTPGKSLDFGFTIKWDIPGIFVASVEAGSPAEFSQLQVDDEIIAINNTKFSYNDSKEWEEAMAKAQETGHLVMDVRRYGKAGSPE

T10: GST-TAX-IP40 PDZ domain fusion protein (human, UniProt Q6B4M5 150-252 (rat entry))
T10 construct: also called TAX40; not shown: glutathione S-transferase encoded by vector pGEX-3X (Pharmacia)
T10 sequence: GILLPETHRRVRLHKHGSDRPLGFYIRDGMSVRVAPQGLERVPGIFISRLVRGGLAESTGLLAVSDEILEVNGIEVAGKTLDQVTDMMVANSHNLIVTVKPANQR

T11: TAX-IP2L PDZ-GST fusion protein (Homo sapiens (Human), UniProt Q8TF64 107-197)
T11 construct: Order of GST and PDZ part and limits not seen in the excerpts
T11 sequence: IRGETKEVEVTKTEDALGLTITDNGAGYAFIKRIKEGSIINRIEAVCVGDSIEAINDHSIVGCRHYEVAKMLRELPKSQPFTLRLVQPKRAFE

T12: GST-RGS12 PDZ domain fusion protein (human, UniProt O14924 17-85)
T12 construct: also called human regulator of G-protein signalling 12; not shown: glutathione S-transferase encoded by vector pGEX-3X (Pharmacia)
T12 sequence: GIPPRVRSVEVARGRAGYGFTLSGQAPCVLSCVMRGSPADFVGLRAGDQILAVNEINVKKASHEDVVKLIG

T13: GST-CASK PDZ domain fusion protein (Homo sapiens, UniProt O14936 486-575)
T13 construct: also called Homo sapiens CASK protein
T13 sequence: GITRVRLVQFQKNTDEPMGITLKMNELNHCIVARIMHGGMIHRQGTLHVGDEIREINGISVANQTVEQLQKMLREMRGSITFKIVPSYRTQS

T14: ConEn PDZ-GST fusion protein (Homo sapiens (Human), UniProt Q969H4 193-287)
T14 construct: The label ConEn is not explained in the excerpts
T14 sequence: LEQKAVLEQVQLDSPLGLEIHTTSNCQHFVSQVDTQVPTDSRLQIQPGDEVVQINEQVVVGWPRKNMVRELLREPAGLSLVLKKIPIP

B1: PAG C-terminal peptide AA58L, biotinylated (peptide)
peptide: Biotin-KENDYESISDLQQGRDITRL
notes: also called Phosphoprotein Associated with GEMs

Target: T1, KIAA0807 (PDZ domain)-GST fusion protein
Test: A/G assays

Binding result, no binding:
Biotin-CAISGTSSDRGYGSPRYAEV (also called AA3L-V) [Clasp-4 C-terminal peptide AA3L, biotinylated]

Target: T2, GEF PDZ-GST fusion protein
Test: A/G assays

Binding result, no binding:
Biotin-AWDDSARAAGGQGLHVTAL [LPAP C-terminal peptide AA30L, biotinylated]
Biotin-QATSENGHSARQHVVADTEL [CD34 C-terminal peptide AA7L, biotinylated]
B1
Biotin-CAISGTSSDRGYGSPRYAEV (also called AA3L-V) [Clasp-4 C-terminal peptide AA3L, biotinylated]

Target: T3, GST-KIAA0303 PDZ domain fusion protein
Test: A/G assays

Binding result, no binding:
Biotin-AWDDSARAAGGQGLHVTAL [LPAP C-terminal peptide AA30L, biotinylated]
Biotin-QATSENGHSARQHVVADTEL [CD34 C-terminal peptide AA7L, biotinylated]
B1
Biotin-CAISGTSSDRGYGSPRYAEV (also called AA3L-V) [Clasp-4 C-terminal peptide AA3L, biotinylated]

Target: T4, GST-AF6 PDZ domain fusion protein
Test: A/G assays

Binding result, no binding:
Biotin-AWDDSARAAGGQGLHVTAL [LPAP C-terminal peptide AA30L, biotinylated]
Biotin-QATSENGHSARQHVVADTEL [CD34 C-terminal peptide AA7L, biotinylated]
B1

Target: T5, X11β PDZ-GST fusion protein
Test: A/G assays

Binding result, no binding:
Biotin-AWDDSARAAGGQGLHVTAL [LPAP C-terminal peptide AA30L, biotinylated]
Biotin-QATSENGHSARQHVVADTEL [CD34 C-terminal peptide AA7L, biotinylated]
B1
Biotin-CAISGTSSDRGYGSPRYAEV (also called AA3L-V) [Clasp-4 C-terminal peptide AA3L, biotinylated]

Target: T6, GST-cytohesin binding protein PDZ …
Test: A/G assays

Binding result, no binding:
Biotin-AWDDSARAAGGQGLHVTAL [LPAP C-terminal peptide AA30L, biotinylated]
Biotin-QATSENGHSARQHVVADTEL [CD34 C-terminal peptide AA7L, biotinylated]
B1
Biotin-CAISGTSSDRGYGSPRYAEV (also called AA3L-V) [Clasp-4 C-terminal peptide AA3L, biotinylated]

Target: T7, MINT3 PDZ-GST fusion protein
Test: A/G assays

Binding result, no binding:
Biotin-AWDDSARAAGGQGLHVTAL [LPAP C-terminal peptide AA30L, biotinylated]
Biotin-QATSENGHSARQHVVADTEL [CD34 C-terminal peptide AA7L, biotinylated]
B1
Biotin-CAISGTSSDRGYGSPRYAEV (also called AA3L-V) [Clasp-4 C-terminal peptide AA3L, biotinylated]

Target: T8, GST-DLG5 (p-dlg) PDZ domain fusion …
Test: A/G assays

Binding result, no binding:
Biotin-AWDDSARAAGGQGLHVTAL [LPAP C-terminal peptide AA30L, biotinylated]
Biotin-QATSENGHSARQHVVADTEL [CD34 C-terminal peptide AA7L, biotinylated]
B1
Biotin-CAISGTSSDRGYGSPRYAEV (also called AA3L-V) [Clasp-4 C-terminal peptide AA3L, biotinylated]

Target: T9, K858 PDZ-GST fusion protein
Test: A/G assays

Binding result, no binding:
Biotin-AWDDSARAAGGQGLHVTAL [LPAP C-terminal peptide AA30L, biotinylated]
Biotin-QATSENGHSARQHVVADTEL [CD34 C-terminal peptide AA7L, biotinylated]
B1
Biotin-CAISGTSSDRGYGSPRYAEV (also called AA3L-V) [Clasp-4 C-terminal peptide AA3L, biotinylated]

Target: T15, NSP PDZ-GST fusion protein (Homo sapiens (Human), UniProt Q92743 370-466)
T15 construct: The label NSP is not explained in the excerpts
T15 sequence (Q92743 other isoform, or with tags, fused parts or gaps limits assumed): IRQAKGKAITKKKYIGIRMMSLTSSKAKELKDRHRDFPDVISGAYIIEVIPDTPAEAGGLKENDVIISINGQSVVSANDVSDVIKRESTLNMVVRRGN
Test: A/G assays

Binding result, no binding:
Biotin-AWDDSARAAGGQGLHVTAL [LPAP C-terminal peptide AA30L, biotinylated]
Biotin-QATSENGHSARQHVVADTEL [CD34 C-terminal peptide AA7L, biotinylated]
B1
Biotin-CAISGTSSDRGYGSPRYAEV (also called AA3L-V) [Clasp-4 C-terminal peptide AA3L, biotinylated]

Target: T10, GST-TAX-IP40 PDZ domain fusion protein
Test: A/G assays

Binding result, no binding:
Biotin-AWDDSARAAGGQGLHVTAL [LPAP C-terminal peptide AA30L, biotinylated]
Biotin-QATSENGHSARQHVVADTEL [CD34 C-terminal peptide AA7L, biotinylated]
B1
Biotin-CAISGTSSDRGYGSPRYAEV (also called AA3L-V) [Clasp-4 C-terminal peptide AA3L, biotinylated]

Target: T11, TAX-IP2L PDZ-GST fusion protein
Test: A/G assays

Binding result, no binding:
Biotin-AWDDSARAAGGQGLHVTAL [LPAP C-terminal peptide AA30L, biotinylated]
Biotin-QATSENGHSARQHVVADTEL [CD34 C-terminal peptide AA7L, biotinylated]
B1
Biotin-CAISGTSSDRGYGSPRYAEV (also called AA3L-V) [Clasp-4 C-terminal peptide AA3L, biotinylated]

Target: T12, GST-RGS12 PDZ domain fusion protein
Test: A/G assays

Binding result, no binding:
Biotin-AWDDSARAAGGQGLHVTAL [LPAP C-terminal peptide AA30L, biotinylated]
Biotin-QATSENGHSARQHVVADTEL [CD34 C-terminal peptide AA7L, biotinylated]
B1
Biotin-CAISGTSSDRGYGSPRYAEV (also called AA3L-V) [Clasp-4 C-terminal peptide AA3L, biotinylated]

Target: T13, GST-CASK PDZ domain fusion protein
Test: A/G assays

Binding result, no binding:
Biotin-AWDDSARAAGGQGLHVTAL [LPAP C-terminal peptide AA30L, biotinylated]
Biotin-QATSENGHSARQHVVADTEL [CD34 C-terminal peptide AA7L, biotinylated]
B1
Biotin-CAISGTSSDRGYGSPRYAEV (also called AA3L-V) [Clasp-4 C-terminal peptide AA3L, biotinylated]

Target: T14, ConEn PDZ-GST fusion protein
Test: A/G assays

Binding result, no binding:
Biotin-AWDDSARAAGGQGLHVTAL [LPAP C-terminal peptide AA30L, biotinylated]
Biotin-QATSENGHSARQHVVADTEL [CD34 C-terminal peptide AA7L, biotinylated]
B1
Biotin-CAISGTSSDRGYGSPRYAEV (also called AA3L-V) [Clasp-4 C-terminal peptide AA3L, biotinylated]
